Experimental data from patent US20200392227A1 (LYVGEN BIOPHARMA, published 2020).
Read-outs that look alike come from different tables or passages of the source.

Legend:
Test in all cases: BLI
[1] = target: T1, human FcRIIA protein (MednaBio, E1033) (human, UniProt P12318 34-218, limits assumed)
T1 construct: Bought; also called FcγRIIA
T1 sequence (looked up): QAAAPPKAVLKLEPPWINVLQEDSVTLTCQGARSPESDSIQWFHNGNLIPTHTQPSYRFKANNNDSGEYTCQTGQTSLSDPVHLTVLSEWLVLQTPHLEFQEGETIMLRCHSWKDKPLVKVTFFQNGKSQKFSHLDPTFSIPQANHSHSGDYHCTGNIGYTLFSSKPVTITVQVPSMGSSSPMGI
In short: (§1)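 Binding was measured by biolayer interferometry on an Octet Red96 System. Commercial human Fc receptor proteins were loaded at 20 μg/mL onto anti-penta-HIS biosensors, which were then dipped into an 8-point 1:3 dilution series of test IgG starting at 300 nM in PBS with 0.1% BSA and 0.02% Tween-20, at pH 7.2 for Fcγ receptors and pH 6 for FcRn. Kd, kon and koff were obtained by global fitting, with data fitted to a 1:1 binding model.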

[2] = target: T2, human FcRI protein (MednaBio, E1031) (human, UniProt P12314 16-288, limits assumed)
T2 construct: Bought; loaded on anti-penta-HIS biosensors; also called FcγRI
T2 sequence (P12314 16-288 limits assumed): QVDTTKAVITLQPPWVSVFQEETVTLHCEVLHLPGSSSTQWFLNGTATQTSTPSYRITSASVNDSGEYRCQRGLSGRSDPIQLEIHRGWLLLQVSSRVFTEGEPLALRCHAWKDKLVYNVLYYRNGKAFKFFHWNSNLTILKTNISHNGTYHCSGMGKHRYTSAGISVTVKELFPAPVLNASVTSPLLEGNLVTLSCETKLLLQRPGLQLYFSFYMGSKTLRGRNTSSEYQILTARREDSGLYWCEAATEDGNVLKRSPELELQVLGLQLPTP
In short: as §1

[3] = target: T3, human FcRIIB/C protein (MednaBio, E1034) (human, UniProt P31994 43-217, limits assumed)
T3 construct: Bought as FcRIIB/C; also called FcγRIIB; CD32B
T3 sequence (looked up): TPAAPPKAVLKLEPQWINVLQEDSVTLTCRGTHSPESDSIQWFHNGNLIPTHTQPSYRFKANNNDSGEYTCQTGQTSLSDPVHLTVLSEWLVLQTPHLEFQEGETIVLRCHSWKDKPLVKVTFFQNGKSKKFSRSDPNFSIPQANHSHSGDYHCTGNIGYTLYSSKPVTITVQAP
In short: as §1

[4] = target: T4, human FcRn protein (MednaBio, E1032) (human, UniProt P55899 24-297; P61769 21-119)
T4 construct: Bought; assays at pH 6
T4 sequence (P55899 24-297 limits assumed, form in doubt, chain 1 of 2): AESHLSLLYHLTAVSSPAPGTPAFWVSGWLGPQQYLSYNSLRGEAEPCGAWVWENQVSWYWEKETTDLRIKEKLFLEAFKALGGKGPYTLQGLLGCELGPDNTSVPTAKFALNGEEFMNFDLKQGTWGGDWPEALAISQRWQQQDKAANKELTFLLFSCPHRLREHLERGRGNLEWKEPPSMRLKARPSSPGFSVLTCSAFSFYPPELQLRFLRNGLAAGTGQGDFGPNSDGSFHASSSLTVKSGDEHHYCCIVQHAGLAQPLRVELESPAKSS
T4 sequence (P61769 21-119 limits assumed, form in doubt, chain 2 of 2): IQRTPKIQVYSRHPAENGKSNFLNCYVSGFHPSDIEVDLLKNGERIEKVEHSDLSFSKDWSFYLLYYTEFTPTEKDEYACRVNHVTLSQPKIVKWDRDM
In short: as §1

[5] = target: T5, human FcRIIIA-F158 protein (MednaBio, E1036) (human, UniProt P08637 17-208)
T5 construct: Bought; also called FcγRIIIA(F)
T5 sequence (P08637 17-208 limits assumed): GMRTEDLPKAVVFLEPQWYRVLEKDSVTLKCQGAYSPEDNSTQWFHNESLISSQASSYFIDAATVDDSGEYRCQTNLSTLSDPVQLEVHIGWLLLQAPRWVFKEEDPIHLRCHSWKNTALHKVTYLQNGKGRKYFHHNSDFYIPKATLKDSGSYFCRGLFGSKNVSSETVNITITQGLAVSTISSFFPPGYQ
In short: as §1

[6] = target: T6, human FcRIIIB protein (MednaBio, E1037) (human, UniProt O75015 17-200)
T6 construct: Bought; also called FcγRIIIB; FcgRIIIB
T6 sequence (O75015 17-200 limits assumed): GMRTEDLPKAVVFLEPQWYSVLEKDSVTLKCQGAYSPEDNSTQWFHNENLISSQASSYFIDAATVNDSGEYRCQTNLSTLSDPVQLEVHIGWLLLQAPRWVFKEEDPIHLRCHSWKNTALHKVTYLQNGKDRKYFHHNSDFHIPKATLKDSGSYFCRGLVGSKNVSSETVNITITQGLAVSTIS
In short: as §1

[7] = target: T1, human FcRIIA protein (MednaBio, E1033); remark: listed apart in the source
[8] = target: T2, human FcRI protein (MednaBio, E1031); remark: listed apart in the source
[9] = target: T3, human FcRIIB/C protein (MednaBio, E1034); remark: listed apart in the source
[10] = target: T4, human FcRn protein (MednaBio, E1032); remark: listed apart in the source
[11] = target: T7, human FcRIIIA-V158 protein (MednaBio, E1035) (human, UniProt P08637 17-208)
T7 construct: Bought; also called FcγRIIIA(V); FcgRIIIA(V)
T7 sequence (P08637 17-208 F176V): as the sequence (P08637 17-208 limits assumed) above, with F160V counted along it

[12] = target: T1, human FcRIIA protein (MednaBio, E1033); remark: listed apart in the source
In short: as §1

[13] = target: T2, human FcRI protein (MednaBio, E1031); remark: listed apart in the source
In short: as §1

[14] = target: T3, human FcRIIB/C protein (MednaBio, E1034); remark: listed apart in the source
In short: as §1

[15] = target: T4, human FcRn protein (MednaBio, E1032); remark: listed apart in the source
In short: as §1

[16] = target: T7, human FcRIIIA-V158 protein (MednaBio, …); remark: listed apart in the source
In short: as §1

B1: wild-type human IgG1 control (antibody)
heavy: not shown
light: SYELTQPPSVSVSPGQTASITCSGDNIGDQYAHWYQQKPGQSPVLVIYQDKNRPSGIPERFSGSNSGNTATLTISGTQAMDEADYYCATYTGFGSLAVFGGGTKLTVLGQPKAAPSVTLFPPSSEELQANKATLVCLISDFYPGAVTVAWKADSSPVKAGVETTTPSKQSNNKYAASSYLSLTPEQWKSHRSYSCQVTHEGSTVEKTVAPTECS
notes: Control IgG
- Kd [1]: 56 nM
- koff [1]: 0.032 s⁻¹
- kon [1]: 570000 M⁻¹ s⁻¹
- Kd [2]: 5.6 nM
- koff [2]: 0.0012 s⁻¹
- kon [2]: 220000 M⁻¹ s⁻¹
- Kd [3]: 130 nM
- koff [3]: 0.016 s⁻¹
- kon [3]: 120000 M⁻¹ s⁻¹
- Kd [4]: 16 nM
- koff [4]: 0.008 s⁻¹
- kon [4]: 480000 M⁻¹ s⁻¹
- Kd [5]: 120 nM
- koff [5]: 0.02 s⁻¹
- kon [5]: 170000 M⁻¹ s⁻¹
- Kd [6]: 130 nM
- koff [6]: 0.027 s⁻¹
- kon [6]: 210000 M⁻¹ s⁻¹
- Kd [7]: 56 nM
- koff [7]: 0.032 s⁻¹
- kon [7]: 570000 M⁻¹ s⁻¹
- Kd [8]: 5.6 nM
- koff [8]: 0.0012 s⁻¹
- kon [8]: 220000 M⁻¹ s⁻¹
- Kd [9]: 130 nM
- koff [9]: 0.016 s⁻¹
- kon [9]: 120000 M⁻¹ s⁻¹
- Kd [10]: 16 nM
- koff [10]: 0.008 s⁻¹
- kon [10]: 480000 M⁻¹ s⁻¹
- Kd [11]: 60 nM
- koff [11]: 0.027 s⁻¹
- kon [11]: 450000 M⁻¹ s⁻¹

B2: wild-type human IgG4 control (antibody)
heavy: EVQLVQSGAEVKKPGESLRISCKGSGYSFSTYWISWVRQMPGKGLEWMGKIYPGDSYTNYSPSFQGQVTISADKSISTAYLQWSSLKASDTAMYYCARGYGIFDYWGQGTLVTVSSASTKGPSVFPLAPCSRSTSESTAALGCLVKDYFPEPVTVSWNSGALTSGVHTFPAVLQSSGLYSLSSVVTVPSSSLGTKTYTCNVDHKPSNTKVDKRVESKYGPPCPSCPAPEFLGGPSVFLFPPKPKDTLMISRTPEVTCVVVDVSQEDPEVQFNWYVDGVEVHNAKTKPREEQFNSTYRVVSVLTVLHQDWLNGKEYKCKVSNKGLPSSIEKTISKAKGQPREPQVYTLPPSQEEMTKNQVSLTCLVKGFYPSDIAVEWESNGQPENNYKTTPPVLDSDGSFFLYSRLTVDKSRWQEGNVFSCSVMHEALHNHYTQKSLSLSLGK
light: SYELTQPPSVSVSPGQTASITCSGDNIGDQYAHWYQQKPGQSPVLVIYQDKNRPSGIPERFSGSNSGNTATLTISGTQAMDEADYYCATYTGFGSLAVFGGGTKLTVLGQPKAAPSVTLFPPSSEELQANKATLVCLISDFYPGAVTVAWKADSSPVKAGVETTTPSKQSNNKYAASSYLSLTPEQWKSHRSYSCQVTHEGSTVEKTVAPTECS
notes: Control IgG
- Kd [1]: 400 nM
- koff [1]: 0.055 s⁻¹
- kon [1]: 140000 M⁻¹ s⁻¹
- Kd [2]: 4.8 nM
- koff [2]: 0.0017 s⁻¹
- kon [2]: 360000 M⁻¹ s⁻¹
- Kd [3]: 400 nM
- koff [3]: 0.05 s⁻¹
- kon [3]: 140000 M⁻¹ s⁻¹
- Kd [4]: 18 nM
- koff [4]: 0.012 s⁻¹
- kon [4]: 640000 M⁻¹ s⁻¹
- Kd [12]: 400 nM
- koff [12]: 0.055 s⁻¹
- kon [12]: 140000 M⁻¹ s⁻¹
- Kd [13]: 4.8 nM
- koff [13]: 0.0017 s⁻¹
- kon [13]: 360000 M⁻¹ s⁻¹
- Kd [14]: 400 nM
- koff [14]: 0.05 s⁻¹
- kon [14]: 140000 M⁻¹ s⁻¹
- Kd [15]: 18 nM
- koff [15]: 0.012 s⁻¹
- kon [15]: 640000 M⁻¹ s⁻¹
- Kd [16]: 550 nM
- koff [16]: 0.092 s⁻¹
- kon [16]: 170000 M⁻¹ s⁻¹
- Kd [7]: 400 nM
- koff [7]: 0.055 s⁻¹
- kon [7]: 140000 M⁻¹ s⁻¹
- Kd [8]: 4.8 nM
- koff [8]: 0.0017 s⁻¹
- kon [8]: 360000 M⁻¹ s⁻¹
- Kd [9]: 400 nM
- koff [9]: 0.05 s⁻¹
- kon [9]: 140000 M⁻¹ s⁻¹
- Kd [10]: 18 nM
- koff [10]: 0.012 s⁻¹
- kon [10]: 640000 M⁻¹ s⁻¹
- Kd [11]: 550 nM
- koff [11]: 0.092 s⁻¹
- kon [11]: 170000 M⁻¹ s⁻¹
